Assay results from PMC4981318.

Experiments:
[1] = biological target: gp41 17–163 (construct H; MPER truncated by 9 C-terminal residues) (HIV-1 (HXB2 isolate)); assay: AUC; sedimentation velocity, 50,000 rpm, 20°C; 20 mM sodium phosphate, pH 7, 150 mM NaCl, 10 mM DPC (excess of micelles); 10–20 μM protein
[2] = biological target: gp41 17–194 (Env 528 to 705; FPPR to TM, IL replaced by the L6 spacer) (HIV-1 (HXB2 isolate)); assay: AUC; sedimentation velocity, 20°C; 20 mM sodium phosphate, pH 7, without NaCl, DPC; 1–2 μM protein left soluble

Substance | stoichiometry N [1] | stoichiometry N [2]
gp41 17–163 (construct H; MPER truncated by 9 C-terminal residues) (domain or fragment) | 3 | 
gp41 17–194 (Env 528 to 705; FPPR to TM, IL replaced by the L6 spacer) (domain or fragment) |  | 3
